Source: publication PMC9935901 (2023)

Experiments:
[1] = target: Cell-penetrating FaP3 (CP-FaP3); test: SPR
[2] = target: Cell-penetrating FaP2 (CP-FaP2); test: SPR

B1: β-catenin (surface plasmon resonance) (natural protein)
chain: MATQADLMELDMAMEPDRKAAVSHWQQQSYLDSGIHSGATTTAPSLSGKGNPEEEDVDTSQVLYEWEQGFSQSFTQEQVADIDGQYAMTRAQRVRAAMFPETLDEGMQIPSTQFDAAHPTNVQRLAEPSQMLKHAVVNLINYQDDAELATRAIPELTKLLNDEDQVVVNKAAVMVHQLSKKEASRHAIMRSPQMVSAIVRTMQNTNDVETARCTAGTLHNLSHHREGLLAIFKSGGIPALVKMLGSPVDSVLFYAITTLHNLLLHQEGAKMAVRLAGGLQKMVALLNKTNVKFLAITTDCLQILAYGNQESKLIILASGGPQALVNIMRTYTYEKLLWTTSRVLKVLSVCSSNKPAIVEAGGMQALGLHLTDPSQRLVQNCLWTLRNLSDAATKQEGMEGLLGTLVQLLGSDDINVVTCAAGILSNLTCNNYKNKMMVCQVGGIEALVRTVLRAGDREDITEPAICALRHLTSRHQEAEMAQNAVRLHYGLPVVVKLLHPPSHWPLIKATVGLIRNLALCPANHAPLREQGAIPRLVQLLVRAHQDTQRRTSMGGTQQQFVEGVRMEEIVEGCTGALHILARDVHNRIVIRGLNTIPLFVQLLYSPIENIQRVAAGVLCELAQDKEAAEAIEAEGATAPLTELLHSRNEGVATYAAAVLFRMSEDKPQDYKKRLSVELTSSLFRTEPMAWNETADLGLDIGAQGEPLGYRQDDPSYRSFHSGGYGQDALGMDPMMEHEMGGHHPGADYPVDGLPDLGHAQDLMDGLPPGDSNQLAWFDTDL
Which Kd [1] does the source give for B1 here?
The Kd was 61.9 nM.

And the Kd [2]?
The Kd was 194 nM.
